Assays:
[1] = biological target: Germline κI O18/O8 light chain variable domain (VL) (human)
[2] = biological target: Germline κI O18/O8 light chain variable domain (VL) (human); remark: listed apart in the source

With “Germline κI O18/O8 light chain variable domain (VL) (domain or fragment)” the t50 of de novo (nonseeded) ThT fibril formation of 20 µM κI, pH 2.0, 37 °C [1] was 266 h and the yield of de novo fibril formation (percent of the initial monomer in fibrils) [2] was 93.4%.

From PMC4968207
